B1: Keratin, type I cytoskeletal 40 (Homo sapiens), Q6A162 (parent)
chain: MTSDCSSTHCSPESCGTASGCAPASSCSVETACLPGTCATSRCQTPSFLSRSRGLTGCLLPCYFTGSCNSPCLVGNCAWCEDGVFTSNEKETMQFLNDRLASYLEKVRSLEETNAELESRIQEQCEQDIPMVCPDYQRYFNTIEDLQQKILCTKAENSRLAVQLDNCKLATDDFKSKYESELSLRQLLEADISSLHGILEELTLCKSDLEAHVESLKEDLLCLKKNHEEEVNLLREQLGDRLSVELDTAPTLDLNRVLDEMRCQCETVLANNRREAEEWLAVQTEELNQQQLSSAEQLQGCQMEILELKRTASALEIELQAQQSLTESLECTVAETEAQYSSQLAQIQCLIDNLENQLAEIRCDLERQNQEYQVLLDVKARLEGEINTYWGLLDSEDSRLSCSPCSTTCTSSNTCEPCSAYVICTVENCCL

Columns and labels:
wt1_human WT1, P19544 = variants of: B1; conditions: with wt1_human WT1, P19544
k2c4_human KRT4, P19013 = variants of: B1; conditions: with k2c4_human KRT4, P19013
mta1_human MTA1, Q13330 = variants of: B1; conditions: with mta1_human MTA1, Q13330
prs8_human PSMC5, P62195 = variants of: B1; conditions: with prs8_human PSMC5, P62195
[1] = variants of: B1; conditions: with snai1_human SNAI1, O95863

Measured: effect of a mutation on the interaction

Chain of snai1_human SNAI1, O95863 (O95863 whole entry): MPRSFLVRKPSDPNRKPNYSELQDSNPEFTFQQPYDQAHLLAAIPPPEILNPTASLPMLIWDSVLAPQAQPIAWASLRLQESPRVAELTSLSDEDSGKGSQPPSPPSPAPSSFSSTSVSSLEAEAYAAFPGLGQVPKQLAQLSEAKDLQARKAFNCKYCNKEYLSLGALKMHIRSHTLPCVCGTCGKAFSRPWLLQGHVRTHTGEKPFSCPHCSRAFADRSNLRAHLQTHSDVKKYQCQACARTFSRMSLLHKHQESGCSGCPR
Chain of k2c4_human KRT4, P19013 (P19013 whole entry): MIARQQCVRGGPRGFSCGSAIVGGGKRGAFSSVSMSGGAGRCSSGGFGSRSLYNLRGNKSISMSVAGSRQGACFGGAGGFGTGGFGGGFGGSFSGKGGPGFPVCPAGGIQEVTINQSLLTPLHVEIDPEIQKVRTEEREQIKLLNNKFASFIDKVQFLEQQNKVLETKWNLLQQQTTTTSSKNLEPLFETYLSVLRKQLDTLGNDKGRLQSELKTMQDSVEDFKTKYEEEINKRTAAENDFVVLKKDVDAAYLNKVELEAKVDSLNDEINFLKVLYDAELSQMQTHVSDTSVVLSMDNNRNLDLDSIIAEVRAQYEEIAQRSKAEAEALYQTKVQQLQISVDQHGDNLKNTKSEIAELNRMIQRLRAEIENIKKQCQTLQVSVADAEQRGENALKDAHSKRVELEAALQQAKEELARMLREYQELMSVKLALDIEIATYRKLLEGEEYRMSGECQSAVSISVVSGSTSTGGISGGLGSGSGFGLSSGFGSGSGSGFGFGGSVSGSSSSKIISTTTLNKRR
Chain of prs8_human PSMC5, P62195 (P62195 whole entry): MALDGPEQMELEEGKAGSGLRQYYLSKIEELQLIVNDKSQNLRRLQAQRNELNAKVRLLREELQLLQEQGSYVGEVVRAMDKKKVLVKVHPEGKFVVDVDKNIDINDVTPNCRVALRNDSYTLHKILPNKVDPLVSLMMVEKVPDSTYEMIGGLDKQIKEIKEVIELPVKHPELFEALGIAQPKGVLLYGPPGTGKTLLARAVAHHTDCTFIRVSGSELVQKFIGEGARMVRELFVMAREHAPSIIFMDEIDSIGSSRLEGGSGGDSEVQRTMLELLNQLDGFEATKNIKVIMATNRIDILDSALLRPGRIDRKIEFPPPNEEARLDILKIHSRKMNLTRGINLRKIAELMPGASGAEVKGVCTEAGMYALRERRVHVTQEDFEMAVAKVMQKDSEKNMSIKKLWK
Chain of mta1_human MTA1, Q13330 (Q13330 whole entry): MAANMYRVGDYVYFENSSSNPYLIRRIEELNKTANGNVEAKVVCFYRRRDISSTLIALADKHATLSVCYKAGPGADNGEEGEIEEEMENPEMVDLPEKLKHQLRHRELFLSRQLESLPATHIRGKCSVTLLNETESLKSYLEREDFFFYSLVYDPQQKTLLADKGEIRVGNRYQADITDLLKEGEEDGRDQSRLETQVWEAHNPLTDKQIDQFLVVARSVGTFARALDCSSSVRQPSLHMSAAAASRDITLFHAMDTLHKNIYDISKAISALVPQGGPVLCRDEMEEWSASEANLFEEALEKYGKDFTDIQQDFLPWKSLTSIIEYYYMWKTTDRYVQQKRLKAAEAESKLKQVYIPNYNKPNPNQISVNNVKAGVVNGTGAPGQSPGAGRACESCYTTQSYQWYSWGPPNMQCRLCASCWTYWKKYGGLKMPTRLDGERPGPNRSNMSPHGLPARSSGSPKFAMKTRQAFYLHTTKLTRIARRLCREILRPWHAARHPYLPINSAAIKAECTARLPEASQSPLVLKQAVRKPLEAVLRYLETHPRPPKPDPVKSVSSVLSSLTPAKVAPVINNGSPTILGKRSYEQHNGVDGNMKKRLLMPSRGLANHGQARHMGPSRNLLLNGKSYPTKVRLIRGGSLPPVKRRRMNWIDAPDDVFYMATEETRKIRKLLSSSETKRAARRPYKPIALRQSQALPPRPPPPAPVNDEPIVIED
Chain of wt1_human WT1, P19544 (P19544 whole entry): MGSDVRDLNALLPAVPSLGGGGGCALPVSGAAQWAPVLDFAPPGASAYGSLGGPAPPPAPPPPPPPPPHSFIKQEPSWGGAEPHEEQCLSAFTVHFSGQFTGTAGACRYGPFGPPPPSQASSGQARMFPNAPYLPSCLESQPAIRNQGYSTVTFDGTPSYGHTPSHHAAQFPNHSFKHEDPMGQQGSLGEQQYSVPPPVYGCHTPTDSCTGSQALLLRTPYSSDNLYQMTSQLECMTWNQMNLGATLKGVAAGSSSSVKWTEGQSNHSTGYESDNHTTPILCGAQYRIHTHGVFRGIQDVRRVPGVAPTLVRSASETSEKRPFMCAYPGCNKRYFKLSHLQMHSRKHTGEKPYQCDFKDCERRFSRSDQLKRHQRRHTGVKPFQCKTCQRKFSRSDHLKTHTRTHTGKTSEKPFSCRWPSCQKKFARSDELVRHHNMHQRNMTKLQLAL

MTSDCSSTHCSPESCGTASGCAPASSCSVETACLPGTCATSRCQTPSFLSRSRGLTGCLLPCYFTGSCNSPCLVGNCAWCEDGVFTSNEKETMQFLNDRLASYLEKVRSLEETNAELESRIQEQCEQDIPMVCPDYQRYFNTIEDLQQKILCTKAENSRLAVQLDNCKLATDDFKSKYESELSLRQLLEADISSLHGILEELTLCKSDLEAHVESLKEDLLCLKKNHEEEVNLLREQLGDRLSVELDTAPTLDLNRVLDEMRCQYETVLANNRREAEEWLAVQTEELNQQQLSSAEQLQGCQMEILELKRTASALEIELQAQQSLTESLECTVAETEAQYSSQLAQIQCLIDNLENQLAEIRCDLERQNQEYQVLLDVKARLEGEINTYWGLLDSEDSRLSCSPCSTTCTSSNTCEPCSAYVICTVENCCL [C265Y]
with no effect: all assays above

MTSDCSSTHCSPESCGTASGCAPASSCSVETACLPGTCATSRCQTPSFLSRSRGLTGCLLPCYFTGSCNSPCLVGNCAWCEDGVFTSNEKETMQFLNDRLASYLEKVRSLEETNAELESRIQEQCEQDIPMVCPDYQRYFNTIEDLQQKILCTKAENSRLAVQLDNCKLATDDFKSKYESELSLRQLLEADISSLHGILEELTLCKSDLEAHVESLKEDLLCLKKNHEEEVNLLREQLGDRLSVELDTAPTLDLNRVLDEMRCQCETVLANNRREAEEWLAVQTEDLNQQQLSSAEQLQGCQMEILELKRTASALEIELQAQQSLTESLECTVAETEAQYSSQLAQIQCLIDNLENQLAEIRCDLERQNQEYQVLLDVKARLEGEINTYWGLLDSEDSRLSCSPCSTTCTSSNTCEPCSAYVICTVENCCL [E286D]
with no effect: all assays above

MTSDCSSTHCSPESCGTASGCAPASSCSVETACLPGTCATSRCQTPSFLSRSRGLTGCLLPCYFTGSCNSPCLVGNCAWCEDGVFTSNEKETMQFLNDRLASYLEKVRSLEETNAELESRIQEQCEQDIPMVCPDYQRYFNTIEDLQQKILCTKAENSRLAVQLDNCKLATDDFKSKYESELSLRQLLEADISSLHGILEELTLCKSDLEAHVESLKEDLLCLKKNHEEEVNLLREQLGDRLSVELDTAPTLDLNRVLDEMRCQCETVLANNRREAEEWLAVQTEELNQQQLSSAEQLQGCQTEILELKRTASALEIELQAQQSLTESLECTVAETEAQYSSQLAQIQCLIDNLENQLAEIRCDLERQNQEYQVLLDVKARLEGEINTYWGLLDSEDSRLSCSPCSTTCTSSNTCEPCSAYVICTVENCCL [M303T]
with no effect: all assays above
